Test results reported in patent publication EP4628104A1 (Shanghai Chia Tai Tianqing Pharmaceutical Technology …, dated 2024).
Numbering of substitutions follows the chain as printed.

B1: hz28G3-1.1-DDDXd (with DAR of 7.4) (antibody, human IgG1, kappa, DAR 7.4, V domains shown)
VH: QVQLVQSGAEVKKPGASVKVSCKTSGYSFTDYLMLWVRQAPGQGLEWMGNINPYYGRTTYALKFKGRVTMTVDRSTSTVYMELSSLRSEDTAVYYCARDGYSLRNAMDYWGQGTLVTVSS
VL: DIVMTQSPDSLAVSLGERATINCKSSQSLFNSGNQKNYLAWYQQKPGQPPKLLIYGASTRESGVPDRFSGSGSGTDFTLTISSLQAEDVAVYYCQNAHSYPYTFGQGTKVEIKR
modifications: linker-payload MC-GGFG-DDDXd (compound H) conjugated to cysteines of the reduced inter-chain disulfide bonds; positions not given; linker-payload MC-GGFG-DDDXd (compound H) conjugated to cysteines of the reduced inter-chain disulfide bonds; positions not given; DAR 7.4 for the whole molecule
notes: also called anti-CLDN18.2 antibody-drug conjugate
B2: hz28G3-1.3-DDDXd (with DAR of 7.6) (antibody, human IgG1, kappa, DAR 7.6, V domains shown)
VH: B1 VH with P41H, G44S
VL: B1 VL
modifications: linker-payload MC-GGFG-DDDXd (compound H) conjugated to cysteines of the reduced inter-chain disulfide bonds; positions not given; linker-payload MC-GGFG-DDDXd (compound H) conjugated to cysteines of the reduced inter-chain disulfide bonds; positions not given; DAR 7.6 for the whole molecule
notes: as for B1
B3: humanized antibody hz28G3-1.1 (antibody, human IgG1, kappa, V domains shown)
VH: B1 VH
VL: B1 VL
notes: Naked humanized anti-CLDN18.2 antibody, human IgG1 / kappa, expressed in CHO cells
B4: humanized antibody hz28G3-1.3 (antibody, human IgG1, kappa, V domains shown)
VH: B1 VH with P41H, G44S
VL: B1 VL
notes: as for B3

Target: human CLDN18.2 (human)
Assay: cell-based or functional assay

| Binder | CDC activity IC50, CLDN18.2-overexpressing NIH-3T3 cells with human complement |
| --- | --- |
| B1 | ~0.352 nM |
| B2 | ~0.352 nM |

Target: human CLDN18.2 (human)
Assay: cell-based or functional assay
Remark: another data set of the same source

| Binder | Killing activity IC50 (CellTiter-Glo), CLDN18.2-overexpressing BxPC-3 cells | Killing activity IC50 (CellTiter-Glo), CLDN18.2-overexpressing NCI-N87 cells | Killing activity IC50 (CellTiter-Glo), CLDN18.2-overexpressing NIH-3T3 cells |
| --- | --- | --- | --- |
| B1 | 0.125 nM | 0.0381 nM | 0.44 nM |
| B2 | 0.0886 nM | 0.0337 nM | 0.281 nM |

Target: human CLDN18.2 (human)
Assay: cell-based or functional assay
Remark: another data set of the same source

| Binder | Endocytosis EC50, CLDN18.2-overexpressing NCI-N87 cells | Endocytosis EC50, CLDN18.2-overexpressing NIH-3T3 cells |
| --- | --- | --- |
| B1 | 4.41 nM | 3.69 nM |
| B3 | 7.84 nM | 2.57 nM |
| B2 | 3.24 nM | 1.85 nM |
| B4 | 6.68 nM | 4.26 nM |

Target: T1, human CLDN18.2 (human)
T1 construct: The construct in the CLDN18.2-overexpressing BxPC-3 and NCI-N87 lines is not described; KATOIII and NUGC-4 express CLDN18.2 naturally; All are written here as this one molecule; also called Claudin 18.2; tight junction protein 18.2
T1 sequence (chain, as listed by the source limits assumed): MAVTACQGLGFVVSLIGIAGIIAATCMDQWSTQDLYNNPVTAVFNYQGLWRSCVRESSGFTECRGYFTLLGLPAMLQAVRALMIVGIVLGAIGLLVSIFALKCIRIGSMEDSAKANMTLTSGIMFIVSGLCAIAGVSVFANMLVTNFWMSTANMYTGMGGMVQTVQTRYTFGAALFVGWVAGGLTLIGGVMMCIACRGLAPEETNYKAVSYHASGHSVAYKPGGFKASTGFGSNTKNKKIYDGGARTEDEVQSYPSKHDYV
Assay: flow cytometry, CLDN18.2-overexpressing BxPC-3 cells

| Binder | EC50 |
| --- | --- |
| B1 | 1.13 nM |
| B3 | 2.63 nM |
| B2 | 0.946 nM |
| B4 | 3.42 nM |

Target: T1, human CLDN18.2
Assay: flow cytometry, CLDN18.2-overexpressing NCI-N87 cells

| Binder | EC50 |
| --- | --- |
| B1 | 1.17 nM |
| B3 | 2.61 nM |
| B2 | 1.02 nM |
| B4 | 2.73 nM |

Target: T1, human CLDN18.2
Assay: flow cytometry, CLDN18.2-overexpressing NIH-3T3 cells

| Binder | EC50 |
| --- | --- |
| B1 | 0.896 nM |
| B3 | 2.27 nM |
| B2 | 0.593 nM |
| B4 | 1.76 nM |
